Test results reported in patent US20230183352A1 (published 2023).
Numbering of substitutions follows the chain as printed. Values belong to the binder of their own block, whether it stands above or below them.

Key:
[1] = biological target: T1, Claudin 18.2 (CLDN18.2), expressed on CHOS-CLDN 18.2 / HEK293-CLDN 18.2 / HCC827-CLDN 18.2 cells (human, UniProt P56856-2 1-261); test: FACS, CHOS-CLDN18.2 cells, 0.020 µg/ml
T1 construct: whole, on cells; The species is not repeated for the CHOS-CLDN 18.2 cells; also called claudin-18A2

[2] = biological target: T1, Claudin 18.2 (CLDN18.2), expressed on …; test: FACS, CHOS-CLDN18.2 cells, 20 µg/ml
[3] = biological target: T1, Claudin 18.2 (CLDN18.2), expressed on …; test: FACS, CHOS-CLDN18.2 cells, 10 µg/ml
[4] = biological target: T1, Claudin 18.2 (CLDN18.2), expressed on …; test: FACS, CHOS-CLDN18.2 cells, 1.250 µg/ml
[5] = biological target: T1, Claudin 18.2 (CLDN18.2), expressed on …; test: FACS, CHOS-CLDN18.2 cells
[6] = biological target: T1, Claudin 18.2 (CLDN18.2), expressed on …; test: FACS, CHOS-CLDN18.2 cells, 0.005 µg/ml
[7] = biological target: T1, Claudin 18.2 (CLDN18.2), expressed on …; test: FACS, CHOS-CLDN18.2 cells, 0.078 µg/ml
[8] = biological target: T1, Claudin 18.2 (CLDN18.2), expressed on …; test: FACS, MFI on CHOS-CLDN18.2 over MFI on CHOS-CLDN18.1, 10 µg/ml
[9] = biological target: T1, Claudin 18.2 (CLDN18.2), expressed on …; test: FACS, CHOS-CLDN18.2 cells, 0.313 µg/ml
[10] = biological target: T1, Claudin 18.2 (CLDN18.2), expressed on …; test: FACS, CHOS-CLDN18.2 cells, 5 µg/ml
[11] = biological target: T1, Claudin 18.2 (CLDN18.2), expressed on …; test: FACS, CHOS-CLDN18.2 cells, 0 µg/ml (background)
[12] = biological target: T2, PD-L1 Protein, Cynomolgus, Recombinant (His Tag) (cynomolgus, UniProt G7PSE7 19-239); test: SPR, Biacore T200, antibody captured
T2 construct: Bought protein; also called QPP10.1; cynoPD-L1; not shown: His tag
T2 sequence (G7PSE7 entry or part of it): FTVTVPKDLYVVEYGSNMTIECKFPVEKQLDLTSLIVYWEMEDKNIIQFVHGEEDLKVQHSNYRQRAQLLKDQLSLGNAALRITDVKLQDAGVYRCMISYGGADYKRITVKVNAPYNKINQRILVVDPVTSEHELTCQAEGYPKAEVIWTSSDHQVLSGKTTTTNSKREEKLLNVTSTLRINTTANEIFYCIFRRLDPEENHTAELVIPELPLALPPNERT

[13] = biological target: T3, Biotin QP004.3 (biotin-PDL1-FC) (human, UniProt Q9NZQ7 19-238, limits assumed, biotinylated (sites not given)); test: PD-L1/PD-1 blocking ELISA, PD1-FC coated; row labelled EC50; competitor PD1-FC
T3 sequence (Q9NZQ7 19-238 limits assumed): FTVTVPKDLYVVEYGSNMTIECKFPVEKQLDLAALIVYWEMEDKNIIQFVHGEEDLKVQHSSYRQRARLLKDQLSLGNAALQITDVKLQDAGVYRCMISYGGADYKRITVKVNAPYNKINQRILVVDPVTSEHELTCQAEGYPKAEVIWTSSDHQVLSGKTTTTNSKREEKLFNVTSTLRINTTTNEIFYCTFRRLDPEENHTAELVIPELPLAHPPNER

[14] = biological target: T4, PD-L1 Protein, Cynomolgus, Recombinant (His Tag) (cynomolgus); test: SPR Biacore T200, antibody captured, PD-L1 His as analyte, 1:1 binding
T4 construct: Bought protein; also called QPP10.1; SinoBiologic 90251-C08H

[15] = biological target: T5, PD-L1 Protein, Human, Recombinant (His Tag) (human, UniProt Q9NZQ7 19-239); test: as above
T5 construct: Bought protein; also called QPP09.1; SinoBiologic 10084-H08H
T5 sequence (Q9NZQ7 19-239 limits assumed): as the sequence (G7PSE7 entry or part of it) above, with T33A, S34A, N62S, Q68R, R82Q, L173F, A185T, I192T, L215H counted along it

[16] = biological target: T3, Biotin QP004.3 (biotin-PDL1-FC); test: PD-L1 binding ELISA, antibody coated, biotin-PDL1-FC titrated
[17] = biological target: T1, Claudin 18.2 (CLDN18.2), expressed on …; test: cell-based or functional assay

- FACS reading [1]: 8000
- FACS reading [2]: 88700
- MFI [3]: 450000
- FACS reading [4]: 114000
- EC50 [5]: 0.354 µg/mL
- max [5]: 148000
- FACS reading [6]: 2840
- FACS reading [7]: 15700
- CLDN18.2/CLDN18.1 (MFI ratio) [8]: 423
- FACS reading [9]: 54200
- FACS reading [10]: 148000
- FACS reading [11]: 729
B1: QP190191 (antibody, human IgG1, V domains shown)
VH: EVKLVESGGGLVKPGGSLKLSCAASGFTFSNYAMSWVRQTPEKRLEWVASIISGGRTYYLDSEKGRFTISRDNARNNLYLQMSSLRSEDTAMYYCTRIYYGNSFDYWGQGTTLTVSS
VL: DIVMTQSPSSQTVTAGEKVTMSCKSSQSLLNSGNQKNYLTWYQQKPGQPPKLLIYWASTRESGVPDRFTGSGSGTDFTLTISNMQAEDLAVYYCQNDYSYPFTFGSGTKLEIK
notes: Chimeric; also called 36A2; mouse-derived chimeric antibody QP190191

- binding result [12]: binds
B2: QP322 (Fc fusion)
chain: EVQLLESGGGLVQPGGSLRLSCAASGFTYGTYAMSWFRQAPGKGREGVACIDIYGRASYTDPVKGRFTISQDNSKNTLYLQMNSLKAEDTAVYYCAARDFGYCTASWVHEGFSRYWGQGTLVTVSS
notes: Humanized from QP1162; also called 1162-V3; humanized nanobody QP322; not shown: human IgG1-FC constant region fused to the C terminal of the VHH

- IC50 [13]: 5.12 nM
- Kd [14]: 5.39 nM
- koff [14]: 0.00354 s⁻¹
- kon [14]: 657000 M⁻¹ s⁻¹
- Kd [15]: 2.37 nM
- koff [15]: 0.00311 s⁻¹
- kon [15]: 1.31e+06 M⁻¹ s⁻¹
- EC50 [16]: 0.00753 µg/mL
B3: QP322 (Fc fusion)
chain: B2 chain
notes: Humanization design of QP1162; VHH at the N-terminal of FC; also called 1162-V3; QD322; not shown: human IgG1-FC constant region fused to the C terminal of the VHH

- binding result [12]: binds
B4: QP325 (Fc fusion)
chain: B2 chain with R45L, A57T, K86R
notes: Humanized from QP1166; also called 1166-V3; humanized antibody QP325; not shown: human IgG1-FC constant region fused to the C terminal of the VHH

- binding result [12]: binds
B5: QP1162 (VHH)
VHH: B2 chain with E1Q, L5V, L11S, P14S, G44E, S74A, A87P, V92M, L121Q
notes: also called nanobody QP1162; camel nanobody QP1162

- FACS reading [1]: 10200
- FACS reading [2]: 134000
- MFI [3]: 512000
- FACS reading [4]: 145000
- EC50 [5]: 0.38 µg/mL
- max [5]: 197000
- FACS reading [6]: 4130
- FACS reading [7]: 18000
- CLDN18.2/CLDN18.1 (MFI ratio) [8]: 497
- FACS reading [9]: 72000
- FACS reading [10]: 197000
- FACS reading [11]: 732
B6: QP14371435 (antibody, human IgG1, kappa, V domains shown)
VH: EVQLVESGGGLVKPGGSLRLSCAASGFTFSNYAMSWVRQAPGKGLEWVASIISGGRTYYLDSEKGRFTISRDNAKNSLYLQMNSLRAEDTAVYYCTRIYYGNSFDYWGQGTLVTVSS
VL: DIVMTQSPDSLAVSLGERATISCKSSQSLLNSGNQKNYLTWYQQKPGQPPKLLIYWASTRESGVPDRFTGSGSGTDFTLTISSLQAEDVAVYYCQNDYSYPFTFGQGTKLEIKR
notes: Humanized from QP190191

- FACS reading [1]: 10800
- FACS reading [2]: 115000
- MFI [3]: 433000
- FACS reading [4]: 133000
- EC50 [5]: 0.36 µg/mL
- max [5]: 174000
- FACS reading [6]: 3730
- FACS reading [7]: 17700
- CLDN18.2/CLDN18.1 (MFI ratio) [8]: 448
- FACS reading [9]: 65900
- FACS reading [10]: 174000
- FACS reading [11]: 754
B7: QP14371433 (antibody, human IgG1, kappa, V domains shown)
VH: B6 VH
VL: B6 VL with S22N, T69S
notes: Humanized from QP190191; also called QP14331437
- EC50 of killing, ADCC (PBMC, HEK293-CLDN18.2 cells) [17]: 0.0162 µg/mL
- Killing percentage, ADCC (PBMC, HEK293-CLDN18.2 cells), 0 µg/ml [17]: 9.02%
- Killing percentage, ADCC (PBMC, HEK293-CLDN18.2 cells), 0.0001024 µg/ml [17]: 8.31%
- Killing percentage, ADCC (PBMC, HEK293-CLDN18.2 cells), 0.000512 µg/ml [17]: 10.5%
- Killing percentage, ADCC (PBMC, HEK293-CLDN18.2 cells), 0.00256 µg/ml [17]: 13.3%
- Killing percentage, ADCC (PBMC, HEK293-CLDN18.2 cells), 0.0128 µg/ml [17]: 31.3%
- Killing percentage, ADCC (PBMC, HEK293-CLDN18.2 cells), 0.064 µg/ml [17]: 41.5%
- Killing percentage, ADCC (PBMC, HEK293-CLDN18.2 cells), 0.32 µg/ml [17]: 49.6%
- Killing percentage, ADCC (PBMC, HEK293-CLDN18.2 cells), 1.6 µg/ml [17]: 56.4%
- Killing percentage, ADCC (PBMC, HEK293-CLDN18.2 cells), 8 µg/ml [17]: 53.8%
- Killing percentage, ADCC (PBMC, HEK293-CLDN18.2 cells), 40 µg/ml [17]: 52.3%

- FACS reading [1]: 8520
- FACS reading [2]: 183000
- MFI [3]: 504000
- FACS reading [4]: 141000
- EC50 [5]: 0.466 µg/mL
- max [5]: 182000
- FACS reading [6]: 3390
- FACS reading [7]: 23600
- CLDN18.2/CLDN18.1 (MFI ratio) [8]: 550
- FACS reading [9]: 75900
- FACS reading [10]: 182000
- FACS reading [11]: 713
B8: QP14361435 (antibody, human IgG1, kappa, V domains shown)
VH: B6 VH with A49S
VL: B6 VL
notes: Humanized from QP190191
